Reference: the supplement of paper PMC10724198
± gives the standard deviation of the averaged measurements.
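Note: PSI is a weighted mean of sequencing reads over stability bins, variants kept only with over 10 reads, mCherry proximal and sfGFP distal, peptide attached via GGGS linker.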

The sequences below were run on Saccharomyces cerevisiae (assay: protein stability index of tFT-peptide fusion (C-terminal peptide) (PSI (0-1 scale)); higher = more stable (slower turnover)). Settings: genetic background: wild type; temperature: 30 C.
Work on FCCFFVHMSFFL yielded a protein stability index of 0.483 ± 0.12. For FCFLLLVSFFFV, the protein stability index was 0.31 ± 0.028. FCICRFLFIFLG was tested, and the protein stability index was 0.336 ± 0.049. For FCIFAMQICTSA, the protein stability index was 0.18 ± 0.017. FCSPFFFFLFRL showed a protein stability index of 0.4182 ± 0.00048. FFFLPLFLVLSL gave a protein stability index of 0.363 ± 0.0047. For FFGFYLKFVWCG, the protein stability index was 0.21 ± 0.019. FFPSFGLFLCPV showed a protein stability index of 0.409 ± 0.027. FFSRIIAILVLM gave a protein stability index of 0.23 ± 0.031. Work on FFVEKRVFFGII yielded a protein stability index of 0.369 ± 0.009. With FFVMVFTVEVFV the protein stability index was 0.194 ± 0.02. With FFVWLGWGMFYG the protein stability index was 0.528 ± 0.054. Work on FGALVVCFLTRC yielded a protein stability index of 0.374 ± 0.026. FGGFYGRRVLII was tested, and the protein stability index was 0.327 ± 0.04. For FGGYLRAGVFLT, the protein stability index was 0.473 ± 0.11. FGPVLLVSFLFS gave a protein stability index of 0.35 ± 0.014. Work on FGVRRSFVVFVV yielded a protein stability index of 0.191 ± 0.023. With FHLFIRRSAVIF the protein stability index was 0.439 ± 0.025. Work on FILFSEMFASSV yielded a protein stability index of 0.26 ± 0.0085. Sequence FLCIFFFFLISF has a protein stability index of 0.27 ± 0.011. FLCLLSLFFLDF gave a protein stability index of 0.478 ± 0.052. Work on FLFCACIRVFSY yielded a protein stability index of 0.193 ± 0.0046. For FLFSSLFCFLFL, the protein stability index was 0.433 ± 0.01. For FLLLVFGLLIDS, the protein stability index was 0.338 ± 0.016. In the case of FLLYRFSLVGCF, the protein stability index is reported as 0.172 ± 0.026. FLLYVITYRSET was tested, and the protein stability index was 0.335 ± 0.046. FLPLLFFFFFRF showed a protein stability index of 0.485 ± 0.008. FLPSLSLPLLLF was tested, and the protein stability index was 0.4318 ± 0.0012. In the case of FLSLVIVLRWFL, the protein stability index is reported as 0.347 ± 0.042. FLWAVSLCRSLV gave a protein stability index of 0.312 ± 0.029. FMRKLVVLVVLG showed a protein stability index of 0.347 ± 0.089. Sequence FMVYRIHSSAVM has a protein stability index of 0.158 ± 0.0045. FPGPPSPPPSYF gave a protein stability index of 0.706 ± 0.011. FPVWTALLTVRA was tested, and the protein stability index was 0.262 ± 0.016. For FRCRFLLPFYSV, the protein stability index was 0.482 ± 0.019. For FRLCQRPVFLLS, the protein stability index was 0.35 ± 0.0061. FSCSRNVLVTVV showed a protein stability index of 0.32 ± 0.049. Sequence FSFPIIFFGMFL has a protein stability index of 0.415 ± 0.0083. Sequence FSFSFWALLWFP has a protein stability index of 0.466 ± 0.0093. Work on FSFVVRMFFRIL yielded a protein stability index of 0.154 ± 0.014. With FSLSLFPYPFSL the protein stability index was 0.755 ± 0.03. In the case of FSSFLGFIRFFV, the protein stability index is reported as 0.426 ± 0.052. For FTLFFVASVLDL, the protein stability index was 0.446 ± 0.0073. For FVGLFEYILLFV, the protein stability index was 0.29 ± 0.036. FVLLTFLFFWQF showed a protein stability index of 0.328 ± 0.03. Sequence FVLWYFCCVGCM has a protein stability index of 0.321 ± 0.016. Sequence FVRCFWPFVFVF has a protein stability index of 0.203 ± 0.023. FVRGWGIVFSLA gave a protein stability index of 0.41 ± 0.01. FVWWFFFLSVVS showed a protein stability index of 0.26 ± 0.018. In the case of FWILLRVLIFVL, the protein stability index is reported as 0.266 ± 0.011. For FYFMGFFFGLGM, the protein stability index was 0.516 ± 0.046. In the case of FYLFPSLPLLLL, the protein stability index is reported as 0.452 ± 0.044. FYLSFWFLIFFF gave a protein stability index of 0.312 ± 0.0092. For GCCFVCSVFWWG, the protein stability index was 0.431 ± 0.011. Work on GCWRVELLVFMC yielded a protein stability index of 0.0681 ± 0.02. GDFYCSSVVLVV showed a protein stability index of 0.306 ± 0.0044. GEGISCLLRRLT was tested, and the protein stability index was 0.413 ± 0.057. Work on GFLAVTVACVWR yielded a protein stability index of 0.255 ± 0.048. GFLWFCGVPVGW gave a protein stability index of 0.571 ± 0.2. For GFVSLFRLFIRL, the protein stability index was 0.36 ± 0.066. For GGGHGSSCSVCD, the protein stability index was 0.744 ± 0.032. For GGGWGVFVVLWW, the protein stability index was 0.318 ± 0.028. Sequence GGIVLLVRVCGP has a protein stability index of 0.46 ± 0.011. In the case of GGLLSQLLRSIG, the protein stability index is reported as 0.425 ± 0.047. For GGRWRRRGFFFS, the protein stability index was 0.518 ± 0.097. For GGYCQMFFLYFR, the protein stability index was 0.141 ± 0.021. Sequence GHHLRVRVILTA has a protein stability index of 0.275 ± 0.054. Sequence GICLVLVSDIWI has a protein stability index of 0.441 ± 0.018. GIGYMFLNVWLV showed a protein stability index of 0.153 ± 0.022. For GKGVFGGLFFLV, the protein stability index was 0.294 ± 0.0074. GLGLIRTSRLLC was tested, and the protein stability index was 0.278 ± 0.037. In the case of GLLAFVCISHTS, the protein stability index is reported as 0.458 ± 0.039. For GLPRRFLLLSVV, the protein stability index was 0.218 ± 0.0055. GPHATYLYLVLA gave a protein stability index of 0.2383 ± 0.00092. With GPRRARLPNFLA the protein stability index was 0.085 ± 0.012. Work on GQSRLVADLRQV yielded a protein stability index of 0.7147 ± 0.00089. GRGFVLSVAVVA showed a protein stability index of 0.435 ± 0.012. GRVCWVVLAGLV showed a protein stability index of 0.429 ± 0.0095.

The sequences below were run on Saccharomyces cerevisiae in the same assay as above. Settings: genetic background: cdc34-1; temperature: 37 C.
Protocol: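 MPS profiling in S. cerevisiae of the tFT-X12 degron library: putative degron peptides plus stable controls, 12 aa, fused to the C-terminus of a sfGFP-mCherry timer. Cells are FACS-sorted into 8 mCherry/sfGFP bins and deep-sequenced. PSI runs from 0 (unstable) to 1 (stable). Backgrounds are wild type, das1Δ and doa10Δ at 30 °C, and wild type, das1Δ, cdc34-1 and cdc53-1 at 37 °C; 2-3 technical replicates each.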
FCCFFVHMSFFL gave a protein stability index of 0.26 ± 0.0087. Sequence FCFLLLVSFFFV has a protein stability index of 0.234 ± 0.0069. Sequence FCICRFLFIFLG has a protein stability index of 0.44 ± 0.018. FCIFAMQICTSA showed a protein stability index of 0.126 ± 0.013. Work on FCSPFFFFLFRL yielded a protein stability index of 0.283 ± 0.072. FFFLPLFLVLSL was tested, and the protein stability index was 0.239 ± 0.01. Work on FFGFYLKFVWCG yielded a protein stability index of 0.431 ± 0.062. For FFPSFGLFLCPV, the protein stability index was 0.431 ± 0.01. FFSRIIAILVLM showed a protein stability index of 0.37 ± 0.071. FFVEKRVFFGII was tested, and the protein stability index was 0.604 ± 0.017. FFVMVFTVEVFV gave a protein stability index of 0.0407 ± 0.015. For FFVWLGWGMFYG, the protein stability index was 0.547 ± 0.034. For FGALVVCFLTRC, the protein stability index was 0.426 ± 0.039. For FGGFYGRRVLII, the protein stability index was 0.62024 ± 0.00039. FGGYLRAGVFLT showed a protein stability index of 0.643 ± 0.032. For FGPVLLVSFLFS, the protein stability index was 0.273 ± 0.024. FGVRRSFVVFVV gave a protein stability index of 0.3827 ± 0.00079. FHLFIRRSAVIF showed a protein stability index of 0.493 ± 0.023. FILFSEMFASSV showed a protein stability index of 0.132 ± 0.021. Sequence FLCIFFFFLISF has a protein stability index of 0.25 ± 0.012. FLCLLSLFFLDF showed a protein stability index of 0.532 ± 0.044. FLFCACIRVFSY was tested, and the protein stability index was 0.0501 ± 0.0013. With FLFSSLFCFLFL the protein stability index was 0.461 ± 0.035. With FLLLVFGLLIDS the protein stability index was 0.183 ± 0.004. With FLLYRFSLVGCF the protein stability index was 0.0567 ± 0.0082. In the case of FLLYVITYRSET, the protein stability index is reported as 0.151 ± 0.0098. In the case of FLPLLFFFFFRF, the protein stability index is reported as 0.377 ± 0.0075. FLPSLSLPLLLF showed a protein stability index of 0.555 ± 0.0068. In the case of FLSLVIVLRWFL, the protein stability index is reported as 0.278 ± 0.048. Work on FLWAVSLCRSLV yielded a protein stability index of 0.607 ± 0.029. FMRKLVVLVVLG showed a protein stability index of 0.257 ± 0.029. FMVYRIHSSAVM gave a protein stability index of 0.127 ± 0.017. FPGPPSPPPSYF gave a protein stability index of 0.699 ± 0.048. Work on FPVWTALLTVRA yielded a protein stability index of 0.0896 ± 0.022. FRCRFLLPFYSV gave a protein stability index of 0.673 ± 0.013. Work on FRLCQRPVFLLS yielded a protein stability index of 0.586 ± 0.054. FSCSRNVLVTVV was tested, and the protein stability index was 0.192 ± 0.029. Sequence FSFPIIFFGMFL has a protein stability index of 0.445 ± 0.021. Sequence FSFSFWALLWFP has a protein stability index of 0.495 ± 0.029. Work on FSFVVRMFFRIL yielded a protein stability index of 0.218 ± 0.009. In the case of FSLSLFPYPFSL, the protein stability index is reported as 0.698 ± 0.022. Work on FSSFLGFIRFFV yielded a protein stability index of 0.661 ± 0.088. FTLFFVASVLDL gave a protein stability index of 0.48 ± 0.021. In the case of FVGLFEYILLFV, the protein stability index is reported as 0.186 ± 0.009. For FVLLTFLFFWQF, the protein stability index was 0.349 ± 0.014. FVLWYFCCVGCM gave a protein stability index of 0.241 ± 0.017. FVRCFWPFVFVF gave a protein stability index of 0.17 ± 0.01. For FVRGWGIVFSLA, the protein stability index was 0.571 ± 0.031. For FVWWFFFLSVVS, the protein stability index was 0.277 ± 0.0019. For FWILLRVLIFVL, the protein stability index was 0.176 ± 0.027. FYFMGFFFGLGM showed a protein stability index of 0.589 ± 0.021. With FYLFPSLPLLLL the protein stability index was 0.424 ± 0.018. Work on FYLSFWFLIFFF yielded a protein stability index of 0.227 ± 0.011. GCCFVCSVFWWG gave a protein stability index of 0.407 ± 0.0055. GCWRVELLVFMC was tested, and the protein stability index was 0.0459 ± 0.0044. For GDFYCSSVVLVV, the protein stability index was 0.401 ± 0.013. GEGISCLLRRLT was tested, and the protein stability index was 0.662 ± 0.013. With GFLAVTVACVWR the protein stability index was 0.0513 ± 0.0097. Sequence GFLWFCGVPVGW has a protein stability index of 0.695 ± 0.026. GFVSLFRLFIRL was tested, and the protein stability index was 0.241 ± 0.073. GGGHGSSCSVCD showed a protein stability index of 0.67 ± 0.035. With GGGWGVFVVLWW the protein stability index was 0.193 ± 0.012. GGIVLLVRVCGP gave a protein stability index of 0.55 ± 0.016. GGLLSQLLRSIG showed a protein stability index of 0.664 ± 0.026. In the case of GGRWRRRGFFFS, the protein stability index is reported as 0.6973 ± 0.0024. GGYCQMFFLYFR showed a protein stability index of 0.0593 ± 0.039. In the case of GHHLRVRVILTA, the protein stability index is reported as 0.4104 ± 0.00042. GICLVLVSDIWI showed a protein stability index of 0.579 ± 0.032. GIGYMFLNVWLV gave a protein stability index of 0.234 ± 0.036. With GKGVFGGLFFLV the protein stability index was 0.667 ± 0.029. Work on GLGLIRTSRLLC yielded a protein stability index of 0.609 ± 0.008. GLLAFVCISHTS gave a protein stability index of 0.497 ± 0.044. For GLPRRFLLLSVV, the protein stability index was 0.328 ± 0.008. For GPHATYLYLVLA, the protein stability index was 0.199 ± 0.022. Sequence GPRRARLPNFLA has a protein stability index of 0.445 ± 0.013. Work on GQSRLVADLRQV yielded a protein stability index of 0.635 ± 0.055. With GRGFVLSVAVVA the protein stability index was 0.404 ± 0.011.
